Reference: paper PMC8762332

B1: yeast eukaryotic initiation factor 4B, wild type, C-terminal hexahistidine tag (natural protein)
chain: MAPPKKTVKKMDLTSFLNDDTFGSSWAEEDVDLNKITIPIETANANTIPLSELAHAKNNSNNTRSGGFGGSFGGRSRLDPALGGGSSDRREEYPVPDAPPYRAVINNIPWDITPEGVQAWVEDGLVKPEAVEEVVLPKNLRDPTRLKGNAFVTLKERADLVAVLKFNGTKLNERTVYVSVAAPRRGGGADVDWSSARGSNFQGDGREDAPDLDWGAARGSNFRGPRREREEVDIDWTAARGSNFQGSSRPPRREREEVDIDWSAARGSNFQGSSRPPRREREEPDIDWSAARGSNFQSSSRPPRREREEPDIDWSAARGSNFQSSSRPPRREREKEEPALDWGAARGAQFGKPQQTKNTYKDRSLTNKKTTDEQPKIQKSVYDVLRTEDDDEDEEAEKQNGDAKENKVDAAVEKLQDKTAQLTVEDGDNWEVVGKK

Experiments:
[1] = target: 40S ribosomal subunit in ribosome complexes (40S/PIC, monosomes, polysomes), marked by Rps2 (S. cerevisiae (endogenous in yeast)) (UniProt P25443); test: co-sedimentation; lysates of cycloheximide-treated yeast crosslinked with 1% formaldehyde (30 min on ice, quenched with 0.1 M glycine), 5–45% sucrose gradients, 10 fractions of 1 ml, western blotting of fractions (anti-His for eIF4B, Rps2, eIF4A, eIF4G)
Chain of UniProt P25443 (P25443 whole entry, looked up, tested part not stated, one chain of several): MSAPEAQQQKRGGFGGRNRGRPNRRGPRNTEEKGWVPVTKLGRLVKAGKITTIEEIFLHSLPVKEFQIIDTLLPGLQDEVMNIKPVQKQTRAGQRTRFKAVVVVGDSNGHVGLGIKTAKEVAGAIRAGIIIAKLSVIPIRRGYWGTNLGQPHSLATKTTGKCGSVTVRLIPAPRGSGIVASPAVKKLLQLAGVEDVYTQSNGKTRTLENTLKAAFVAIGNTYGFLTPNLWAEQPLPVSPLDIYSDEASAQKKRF

[2] = target: 40S ribosomal subunit in ribosome complexes (40S/PIC, monosomes, polysomes), marked by Rps2 (S. cerevisiae (endogenous in yeast)) (UniProt P25443); test: co-sedimentation; yeast cultures crosslinked with 2% formaldehyde for 60 min on ice before lysis, 7.5–30% sucrose gradients (41,000 rpm, 5 h, SW-41), 0.63 ml fractions up to the 40S peak analysed by western blotting

Molecule	percent of the protein in fractions that lack 40S subunits and ribosomes [1]	percent reduction of eIF4B in Rps2-containing fractions against WT [2]	percent of the protein in Rps2/40S subunit-containing fractions [1]
yeast eIF4B lacking the N-terminal domain, C-terminal hexahistidine tag (domain or fragment)	80%	93%	–
B1	–	–	55%
